This note sets out measurements from patent publication US20240343817A1 (STAIDSON BEIJING BIOPHARMACEUTICALS, published 2024).

Residue numbers refer to the chain shown, from its start.

The chains are these.
B1: D4 (antibody, V domains shown)
VH: EVMLVESGAELVRPGASVKLSCTASGFKIKDSYIHWMIQRPEQGLEWIGRIDPTNGNTNFDPKFRGKATLTTDTSSNTAYLQLSSLTSEDTAVYYCVPNYYGSRYPFSYWGQGTTVTVSS
VL: QIVLTQSPAIMSASPGEKVTMTCSGSSSVSYMHWFQQKPGNSPKIWIYFTSNLASGVPARFSGSGSGTSYSLTISRMEAGDAATYYCQQGSTYPLTFGAGTKLELK
B2: D22 (antibody, human IgG4, V domains shown)
VH: QVQLVQSGAEVKKPGASVKVSCKASVYSFTGYTVNWVRQAPGQRLEWMGLINPYTGGTTYNQKFKGRVTLTIDKSASTAYMELSSLRSEDTAVYYCASSYYSKPYAMDYWGQGTLVTVSS
VL: EIVMTQSPATLSVSPGERATLSCKASQNVHTRVAWYQQKPGQAPRLLIYLASDRRTGIPARFSGSGSGTEFTLTISSLQSEDFAVYYCLQHWTYPLTFGQGTKVEIK
B3: D25 (antibody, human IgG4, V domains shown)
VH: B2 VH with T33V, T55N, K103N
VL: B2 VL with R32A, T93N
B4: D39 (antibody, human IgG4, V domains shown)
VH: B2 VH with T55N, K103N, M107Q
VL: B2 VL with T93N
B5: D44 (antibody, human IgG4, V domains shown)
VH: B2 VH with T55N, K103L
VL: B2 VL with T93N
B6: D30 (antibody, human IgG4, V domains shown)
VH: B2 VH with T55N, T59W, Y100M, K103N
VL: B2 VL with T93N
B7: D28 (antibody, human IgG4, V domains shown)
VH: B2 VH with T55S, K103R
VL: B2 VL with T93N, Y94S
B8: D46 (antibody, human IgG4, V domains shown)
VH: B2 VH with T55S, S102V, K103N
VL: B2 VL with T93N
B9: D37 (antibody, V domains shown)
VH: B2 VH with N52A, T55N, S98L, K103N
VL: B2 VL with T93N
B10: D24 (antibody, human IgG4, V domains shown)
VH: B2 VH with Y54K, T55N, Y100L, K103N
VL: B2 VL with T93N
B11: D45 (antibody, human IgG4, V domains shown)
VH: B2 VH with T55N, T59S, Y100I, K103N
VL: B2 VL with T93N, Y94Q
B12: D34 (antibody, human IgG4, V domains shown)
VH: B2 VH with T55N, K103R
VL: B2 VL with T93S
B13: D48 (antibody, human IgG4, V domains shown)
VH: B2 VH with Y54S, T55N, K103N, M107N
VL: B2 VL with R32H, T93N
B14: D29 (antibody, human IgG4, V domains shown)
VH: B2 VH with Y54M, T55N, K103N, M107G
VL: B2 VL with T93N, Y94R
B15: D36 (antibody, human IgG4, V domains shown)
VH: B2 VH with T55N, Y100R, K103N
VL: B2 VL with R32H, T93N
B16: D38 (antibody, human IgG4, V domains shown)
VH: B2 VH with L50M, T55N, K103V
VL: B2 VL with T93N
B17: D35 (antibody, human IgG4, V domains shown)
VH: B2 VH with T33L, T55N, K103N
VL: B2 VL with R32A, T93N
B18: D32 (antibody, human IgG4, V domains shown)
VH: B2 VH with T55H, Y100S, K103N
VL: B2 VL with T93N
B19: D41 (antibody, human IgG4, V domains shown)
VH: B2 VH with T55S, Y100P, K103N
VL: B2 VL with T93N, Y94A
B20: D23 (antibody, human IgG4, V domains shown)
VH: B2 VH with S28G, T55N, K103N, M107N
VL: B2 VL with R32A, A51R, H91A, T93N
B21: D50 (antibody, human IgG4, V domains shown)
VH: B2 VH with T55N, T59A, K103D, M107N
VL: B2 VL with T93N
B22: D43 (antibody, human IgG4, V domains shown)
VH: B2 VH with Y54T, T55N, T59S, K103N, M107S
VL: B2 VL with L21M, T93N
B23: D40 (antibody, human IgG4, V domains shown)
VH: B2 VH with Y101W, K103N
VL: B2 VL with T93N
B24: D51 (antibody, human IgG4, V domains shown)
VH: B2 VH with Y54E, T55N, K103N, M107N
VL: B2 VL with T93N
B25: D27 (antibody, human IgG4, V domains shown)
VH: B2 VH with N52V, T55N, Y100G, K103N
VL: B2 VL with R32N, T93N
B26: D31 (antibody, human IgG4, V domains shown)
VH: B2 VH with T55N, T59S, K103N, M107A
VL: B2 VL with T93N

T1 sequence (P25942 21-277 limits assumed): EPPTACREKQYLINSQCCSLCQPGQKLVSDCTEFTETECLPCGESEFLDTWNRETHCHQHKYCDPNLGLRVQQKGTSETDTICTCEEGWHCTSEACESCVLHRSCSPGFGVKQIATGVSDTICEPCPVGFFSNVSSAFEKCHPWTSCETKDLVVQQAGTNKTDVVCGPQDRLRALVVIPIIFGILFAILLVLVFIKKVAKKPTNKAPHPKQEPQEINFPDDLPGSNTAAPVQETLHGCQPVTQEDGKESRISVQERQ

One test addresses T1, human CD40 on cells (human, UniProt P25942 21-277). Put plainly: cell-based or functional assay.
For B1, the “IC50, HEK-Blue CD40L NF-κB activation assay (SEAP), Fc-3*G4S-CD40L stimulus” value worked out at 0.0167 µg/mL.

For the next test, the target named is T1, human CD40 on cells. Put plainly: cell-based or functional assay. This is another data set of the same source.
As for B2, the “IC50, HEK-Blue CD40L NF-κB activation assay (SEAP), antibody as human IgG4” value (“IC50 … as human IgG4” below) amounted to 0.0219 µg/mL.

As to B3, the “IC50 … as human IgG4” value worked out at 0.0273 µg/mL.

In the case of B4, the “IC50 … as human IgG4” value is 0.03 µg/mL.

Consider B5, for which the “IC50 … as human IgG4” value came out at 0.0201 µg/mL.

For B6, the “IC50 … as human IgG4” value was 0.018 µg/mL.

On to B7, for which the “IC50 … as human IgG4” value was 0.0124 µg/mL.

As for B8, the “IC50 … as human IgG4” value came to 0.0112 µg/mL.

For B9, the “IC50 … as human IgG4” value was determined as 0.0211 µg/mL.

Regarding B10, the “IC50 … as human IgG4” value was 0.0164 µg/mL.

Regarding B11, the “IC50 … as human IgG4” value stood at 0.0157 µg/mL.

With B12, the “IC50 … as human IgG4” value was found to be 0.0338 µg/mL.

B13: the “IC50 … as human IgG4” value turned out to be 0.0307 µg/mL.

For the molecule B14, the “IC50 … as human IgG4” value was determined as 0.0342 µg/mL.

As to B15, the “IC50 … as human IgG4” value is 0.0212 µg/mL.

As for B16, the “IC50 … as human IgG4” value was determined as 0.0156 µg/mL.

For the molecule B17, the “IC50 … as human IgG4” value was determined as 0.0233 µg/mL.

As to B18, the “IC50 … as human IgG4” value was determined as 0.0164 µg/mL.

Take B19: the “IC50 … as human IgG4” value was found to be 0.0194 µg/mL.

Regarding B20, the “IC50 … as human IgG4” value came to 0.0169 µg/mL.

For the molecule B21, the “IC50 … as human IgG4” value is 0.0142 µg/mL.

As for B22, the “IC50 … as human IgG4” value is 0.0168 µg/mL.

With B23, the “IC50 … as human IgG4” value came to 0.0142 µg/mL.

In the case of B24, the “IC50 … as human IgG4” value turned out to be 0.0184 µg/mL.

Take B25: the “IC50 … as human IgG4” value is 0.0298 µg/mL.

For the molecule B26, the “IC50 … as human IgG4” value turned out to be 0.0139 µg/mL.
